From publication PMC3268813 (Scientific Reports, 2012)
Residue numbers refer to the chain shown, from its start. Names and notes keep the numbering of the source.

What was measured:
[1] = biological target: the molecule itself; assay: SEC
[2] = biological target: T1, GST-tagged chicken CK2α kinase dead (K68A mutant) (chicken, UniProt P21868 1-391, K68A); assay: pull-down
T1 sequence: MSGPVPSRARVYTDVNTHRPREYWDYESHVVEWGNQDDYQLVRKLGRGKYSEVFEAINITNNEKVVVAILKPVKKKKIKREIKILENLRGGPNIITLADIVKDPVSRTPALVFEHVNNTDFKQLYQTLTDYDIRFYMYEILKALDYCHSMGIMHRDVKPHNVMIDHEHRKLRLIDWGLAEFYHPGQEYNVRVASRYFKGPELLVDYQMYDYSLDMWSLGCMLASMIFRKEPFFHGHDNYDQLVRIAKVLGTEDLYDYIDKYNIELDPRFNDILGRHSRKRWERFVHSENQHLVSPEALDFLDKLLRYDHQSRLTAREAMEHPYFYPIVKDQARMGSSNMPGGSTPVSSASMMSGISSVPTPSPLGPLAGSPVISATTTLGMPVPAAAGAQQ

[3] = biological target: T2, GST-tagged chicken CK2α (chicken, UniProt P21868 1-391); assay: pull-down
T2 sequence: T1 sequence with A68K

B1: CRN2 wild-type C-terminal polypeptide (aa300-474), His6-tagged (domain or fragment)
chain: PYVHYLNTFSSKEPQRGMGYMPKRGLDVNKCEIARFFKLHERKCEPIIMTVPRKSDLFQDDLYPDTAGPEAALEAEEWFEGKNADPILISLKHGYIPGKNRDLKVVKKNILDSKPTANKKCDLISIPKKTTDTASVQNEAKLDEILKEIKSIKDTICNQDERISKLEQQMAKIAA
[1]
  stoichiometry N: 3
[2]
  binding result: binds
[3]
  binding result: binds

B2: CRN2 S463A phospho-resistant C-terminal polypeptide (aa300-474), His6-tagged (domain or fragment)
chain: B1 chain with S164A
[1]
  stoichiometry N: 3

B3: CRN2 S463D phosphomimetic C-terminal polypeptide (aa300-474), His6-tagged (domain or fragment)
chain: B1 chain with S164D
[1]
  stoichiometry N: 3
[2]
  binding result: binds
[3]
  binding result: binds
